± gives the uncertainty stated by the source.
Test: self-splicing fitness, log relative to wild type (ln ratio); higher = more splicing; Tetrahymena group I intron in knt gene, E. coli kanamycin selection, DiMSum; sequences stand for … in CUCUCU…GGAGGGAAAAGUUAUCAGGCAUGCACCUGGUAGCUAGUCUUUAAACCAAUAGAUUGCAUCGGUUUAAAAGGCAAGACCGUCAAAUUGCGGGAAAGGGGUCAACAGCCGUUCAGUACCAAGUCUCAGGGGAAACUUUGAGAUGGCCUUGCAAAGGGUAUGGUAAUAAGCUGACGGACAUGGUCCUAACCACGCAGCCAAGUCCUAAGUCAACAGAUCUUCUGUUGAUAUGGAUGCAGUUCACAGACUAAAUGUCGGUCGGGGAAGAUGUAUUCUUCUCAUAAGAUAUAGUCGGACCUCUCCUUAAUGGGAGCUAGCGGAUGAAGUGAUGCAACACUGGAGCCGCUGGGAACUAAUUUGUAUGCGAAAGUAUAUUGAUUAGUUUUGGAGUACUCGUGGUCG
Outline: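 Colonies from six replicate transformations of E. coli BL21(DE3) were pooled and amplicon-sequenced on an Illumina HiSeq 2500. The library placed an intron with all eight P1ex-region nucleotides randomised inside the knt kanamycin-resistance gene on pET-22b(+), and cells grew overnight at 37°C or 30°C on LB agar with or without 25 μg/mL kanamycin (plus 100 μg/mL carbenicillin, 50 μM IPTG, 0.2% rhamnose). Fitness is the DiMSum error-weighted combination of wild-type-normalised replicate fold changes, kanamycin versus none.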

Sequence | self-splicing fitness (ln) (30 °C) | self-splicing fitness (ln) (37 °C)
UCGAAGCAAUAUUACGAAGG | -1.84 ± 0.21 | -2.47 ± 0.33
UCGAAGCAAUAUUACGAAUU | -3.1 ± 0.37 | -2.21 ± 0.38
UCGAAGCAAUAUUACGACGG | -1.8 ± 0.17 | -0.892 ± 0.18
UCGAAGCAAUAUUACGAGUC | -3.45 ± 0.42 | 
UCGAAGCAAUAUUACGAUGA | -0.316 ± 0.068 | 0.368 ± 0.074
UCGAAGCAAUAUUACGCACA | -1.23 ± 0.13 | -0.472 ± 0.16
UCGAAGCAAUAUUACGCAUC | -1.47 ± 0.29 | -2.36 ± 0.3
UCGAAGCAAUAUUACGCCGU | -0.599 ± 0.12 | -0.739 ± 0.12
UCGAAGCAAUAUUACGCCUU | -3.4 ± 0.25 | -3.23 ± 0.26
UCGAAGCAAUAUUACGCGUU | -3.93 ± 0.21 | -1.47 ± 0.18
UCGAAGCAAUAUUACGCUAG | -2.16 ± 0.14 | -0.234 ± 0.14
UCGAAGCAAUAUUACGCUGG | -1.85 ± 0.13 | -2.04 ± 0.16
UCGAAGCAAUAUUACGGAAU | -3.57 ± 0.24 | -1.91 ± 0.23
UCGAAGCAAUAUUACGGGCG | 0.0324 ± 0.093 | -0.219 ± 0.1
UCGAAGCAAUAUUACGUAUA | -3.1 ± 0.22 | -1.58 ± 0.18
UCGAAGCAAUAUUACGUCGU | -2.65 ± 0.2 | -1.34 ± 0.15
UCGAAGCAAUAUUACGUGAA | -2.53 ± 0.13 | -1.13 ± 0.12
UCGAAGCAAUAUUACGUGAU | -2.71 ± 0.16 | -1.37 ± 0.17
UCGCAGCAAUAUUACGAAAA | -3.16 ± 0.43 | -2.2 ± 0.46
UCGCAGCAAUAUUACGAGAU | -3.01 ± 0.25 | -1.86 ± 0.25
UCGCAGCAAUAUUACGAGCG | -1.97 ± 0.12 | -0.806 ± 0.13
UCGCAGCAAUAUUACGAGGC | -3.12 ± 0.24 | -3.16 ± 0.26
UCGCAGCAAUAUUACGAGGG | -2.72 ± 0.11 | -1.65 ± 0.13
UCGCAGCAAUAUUACGAUAA | -1.91 ± 0.14 | -0.243 ± 0.14

Sequence | self-splicing fitness (ln) (30 °C) | self-splicing fitness (ln) (37 °C)
UCGCAGCAAUAUUACGCAGU | -3.58 ± 0.2 | -2.35 ± 0.2
UCGCAGCAAUAUUACGCCUA | -1.21 ± 0.13 | 0.0885 ± 0.14
UCGCAGCAAUAUUACGCCUU | -1.44 ± 0.12 | -0.631 ± 0.15
UCGCAGCAAUAUUACGCGAA | -1.65 ± 0.23 | -2.45 ± 0.25
UCGCAGCAAUAUUACGCGCA | -0.382 ± 0.091 | -0.601 ± 0.078
UCGCAGCAAUAUUACGGACG | -1.44 ± 0.15 | -0.806 ± 0.13
UCGCAGCAAUAUUACGGAGG | -3.71 ± 0.18 | -2.05 ± 0.15
UCGCAGCAAUAUUACGGGAA | -2.44 ± 0.15 | -1.49 ± 0.13
UCGCAGCAAUAUUACGGUCA | -0.966 ± 0.1 | 0.119 ± 0.11
UCGCAGCAAUAUUACGUAAC | -3.25 ± 0.29 | -1.73 ± 0.23
UCGCAGCAAUAUUACGUACG | -1.12 ± 0.12 | -0.686 ± 0.13
UCGCAGCAAUAUUACGUAUA | -1.82 ± 0.11 | -0.691 ± 0.12
UCGCAGCAAUAUUACGUGAA | -1.32 ± 0.078 | -0.713 ± 0.086
UCGCAGCAAUAUUACGUGUG | -2.24 ± 0.074 | -2.33 ± 0.12
UCGCAGCAAUAUUACGUUAA | -2.18 ± 0.12 | -1 ± 0.096
UCGCAGCAAUAUUACGUUGG | -2.56 ± 0.11 | -2.12 ± 0.12
UCGGAGCAAUAUUACGAACA | -2.3 ± 0.21 | -1.25 ± 0.21
UCGGAGCAAUAUUACGACAU | -3.91 ± 0.041 | -2.98 ± 0.052
UCGGAGCAAUAUUACGACCG | -2.42 ± 0.45 | 
UCGGAGCAAUAUUACGAGGG | -3.58 ± 0.21 | -2.94 ± 0.44
UCGGAGCAAUAUUACGCACU | -3.53 ± 0.25 | -2.23 ± 0.23
UCGGAGCAAUAUUACGCCUG | -0.894 ± 0.26 | 
UCGGAGCAAUAUUACGCGCG | -2.02 ± 0.18 | -0.752 ± 0.2
UCGGAGCAAUAUUACGCUUA | -2.33 ± 0.33 | -1.89 ± 0.41
